{"source": "paper doi:10.1101/2020.10.15.340570", "about": "“Coordination of RNA and protein condensation by the P granule protein MEG-3”", "target": "T1, MEG-3 HMGL- (Caenorhabditis elegans, UniProt Q9TXM1 1-862, F705A;Y708A;Y713A;N725A)", "T1 sequence": "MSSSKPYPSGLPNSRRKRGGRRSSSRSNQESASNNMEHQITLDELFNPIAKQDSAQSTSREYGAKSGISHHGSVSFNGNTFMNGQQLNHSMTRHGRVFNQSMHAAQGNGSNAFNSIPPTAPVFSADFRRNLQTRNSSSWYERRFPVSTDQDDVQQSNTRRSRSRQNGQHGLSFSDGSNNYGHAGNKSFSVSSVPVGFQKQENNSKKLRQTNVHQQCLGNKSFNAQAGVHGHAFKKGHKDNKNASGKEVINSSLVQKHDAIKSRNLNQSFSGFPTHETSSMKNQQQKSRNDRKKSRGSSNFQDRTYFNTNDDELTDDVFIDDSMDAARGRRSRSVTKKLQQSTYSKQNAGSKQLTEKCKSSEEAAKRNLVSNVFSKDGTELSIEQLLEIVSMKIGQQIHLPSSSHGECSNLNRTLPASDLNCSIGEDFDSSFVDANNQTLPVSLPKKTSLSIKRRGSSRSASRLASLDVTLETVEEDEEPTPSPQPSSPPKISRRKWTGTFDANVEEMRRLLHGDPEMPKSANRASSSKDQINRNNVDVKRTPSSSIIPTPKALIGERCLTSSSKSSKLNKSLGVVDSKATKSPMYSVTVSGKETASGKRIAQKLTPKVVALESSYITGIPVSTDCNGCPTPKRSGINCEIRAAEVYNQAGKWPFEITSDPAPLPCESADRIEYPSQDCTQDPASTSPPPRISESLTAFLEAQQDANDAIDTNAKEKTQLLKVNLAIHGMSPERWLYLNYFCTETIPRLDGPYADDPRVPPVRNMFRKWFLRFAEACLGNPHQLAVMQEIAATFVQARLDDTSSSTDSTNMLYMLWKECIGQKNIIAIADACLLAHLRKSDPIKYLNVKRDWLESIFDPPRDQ", "assay": "filter binding; high affinity, similar to wild type; Kd only in figure; 50 nM RNA, 3.75 mM HEPES (stock pH 7.4), 150 mM NaCl, 0.9 mM beta-mercaptoethanol, 1.5% glycerol, 10 mM Tris HCl, 30 min, room temperature", "conditions": "protein: recombinant; tags: N-terminal 6xHis (pET28a); label: 3' fluorescein; single strand"}
{"binder": "UUUUUUUUUUUUUUUUUUUUUUUUUUUUUU (ssRNA)", "note": "[30U RNA (poly-U30)]", "values": [{"measurement": "binding result", "result": "binds"}]}
